# Laboratory results from patent US20260295010 (published 2026).
# Substitutions are numbered along the chain they refer to. Names may count otherwise. “And” between values parts separate entries of the source, which are not always exact repeats. Equal entries are not always repeated. Where two headings read alike, the source gives them in different places.
# B1: IL-12p70 K265Y (protein)
# chain 1: MIWELKKDVYVVELDWYPDAPGEMVVLTCDTPEEDGITWTLDQSSEVLGSGKTLTIQVKEFGDAGQYTCHKGGEVLSHSLLLLHKKEDGIWSTDILKDQKEPKNKTFLRCEAKNYSGRFTCWWLTTISTDLTFSVKSSRGSSDPQGVTCGAATLSAERVRGDNKEYEYSVECQEDSACPAAEESLPIEVMVDAVHKLKYENYTSSFFIRDIIKPDPPKNLQLKPLKNSRQVEVSWEYPDTWSTPHSYFSLTFSVQVQGKSKREKYDRVFTDKTSATVICRKNASISVRAQDRYYSSSWSEWASVPCSGGGSHHHHHH
# chain 2: MRNLPVATPDPGMFPSLHHSQNLLRAVSNMLQKARQTLEFYPCTSEEIDHEDITKDKTSTVEACLPLELTKNESCLNSRETSFITNGSSLASRKTSFMMALCLSSIYEDLKMYQVEFKTMNAKLLMDPKRQIFLDQNMLAVIDELMQALNFNSETVPQKSSLEEPDFYKTKIKLCILLHAFRIRAVTIDRVMSYLNAS
# B2: IL-12p70 K259Y (protein)
# chain 1: B1 chain 1 with K259Y, Y265K
# chain 2: B1 chain 2
# B3: IL-12p70 p40-HIS6_C253S / p35_C16S_C89S (protein)
# chain 1: B1 chain 1 with Y265K
# chain 2: B1 chain 2
# B4: IL-12p70 K105E (protein)
# chain 1: B1 chain 1 with K105E, Y265K
# chain 2: B1 chain 2
# B5: IL-12p70 K105E K265Y (protein)
# chain 1: B1 chain 1 with K105E
# chain 2: B1 chain 2
# B6: IL-12p70 W16A (protein)
# chain 1: B1 chain 1 with W16A, Y265K
# chain 2: B1 chain 2
# B7: IL-12p70 D94K (protein)
# chain 1: B1 chain 1 with D94K, Y265K
# chain 2: B1 chain 2
# B8: IL-12p70 E87K,K196E,K198E (protein)
# chain 1: B1 chain 1 with E87K, K196E, K198E, Y265K
# chain 2: B1 chain 2
# B9: IL-12p70 K105E K259Y K265Y (protein)
# chain 1: B1 chain 1 with K105E, K259Y
# chain 2: B1 chain 2
# B10: IL-12p70 L197A (protein)
# chain 1: B1 chain 1 with L197A, Y265K
# chain 2: B1 chain 2
# B11: IL-12p70 K196E (protein)
# chain 1: B1 chain 1 with K196E, Y265K
# chain 2: B1 chain 2
# B12: IL-12p70 W16A D94K K196E K265Y (protein)
# chain 1: B1 chain 1 with W16A, D94K, K196E
# chain 2: B1 chain 2
# B13: IL-12p70 K259Y K265Y (protein)
# chain 1: B1 chain 1 with K259Y
# chain 2: B1 chain 2
# Assays:
# Experiment in all cases: SPR, 25C
# IL-12RB1-hFc [1] = target: T1, IL-12RB1-hFc (human, UniProt P42701)
# IL-12RB2-hFc [2] = target: T2, IL-12RB2-hFc (human, UniProt Q99665)
# T2 chain: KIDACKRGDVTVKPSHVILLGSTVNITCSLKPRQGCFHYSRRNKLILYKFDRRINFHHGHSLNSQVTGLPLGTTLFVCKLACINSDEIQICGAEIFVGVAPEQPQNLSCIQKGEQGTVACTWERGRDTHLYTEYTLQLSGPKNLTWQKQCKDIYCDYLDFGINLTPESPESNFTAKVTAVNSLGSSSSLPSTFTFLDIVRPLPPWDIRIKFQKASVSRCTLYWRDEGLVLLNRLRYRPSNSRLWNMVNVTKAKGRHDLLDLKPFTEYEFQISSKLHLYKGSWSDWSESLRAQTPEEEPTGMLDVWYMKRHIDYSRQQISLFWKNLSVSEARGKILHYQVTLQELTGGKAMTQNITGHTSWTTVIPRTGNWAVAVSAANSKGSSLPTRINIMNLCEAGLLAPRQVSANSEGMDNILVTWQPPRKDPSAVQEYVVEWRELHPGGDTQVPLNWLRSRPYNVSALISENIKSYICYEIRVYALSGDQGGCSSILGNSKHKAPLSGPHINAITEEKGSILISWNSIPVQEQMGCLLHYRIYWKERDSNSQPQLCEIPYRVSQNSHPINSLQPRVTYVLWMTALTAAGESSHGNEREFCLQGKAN
# IL-12RB2-hFc [3] = target: T2, IL-12RB2-hFc
# IL-12RB1-hFc [4] = target: T1, IL-12RB1-hFc; remark: listed apart in the source
# IL-12RB1-hFc [5] = target: T1, IL-12RB1-hFc; remark: listed apart in the source
Binder,Kd (IL-12RB1-hFc [1]),Kd (IL-12RB2-hFc [2]),Kd (IL-12RB2-hFc [3]),Kd (IL-12RB1-hFc [4]),koff (IL-12RB1-hFc [5])
B1,0.11 nM,1.6 nM,4.9 nM,0.51 nM,–
B2,0.08 nM,1.1 nM,4 nM,0.87 nM,–
B3,0.04 nM,0.75 nM and 0.34 nM,2.5 nM and 2.4 nM,0.3 nM and 0.11 nM,–
B4,0.13 nM,0.56 nM,1.1 nM,0.5 nM,–
B5,–,–,1.6 nM,1.1 nM,–
B6,–,0.62 nM,16 nM,–,0.049 s⁻¹
B7,0.75 nM,1.2 nM,1.9 nM,0.44 nM,–
B8,–,0.61 nM,–,–,0.0705 s⁻¹
B9,–,–,4 nM,1.8 nM,–
B10,0.05 nM,0.55 nM,2.3 nM,0.31 nM,–
B11,0.15 nM,0.42 nM,2.7 nM,0.7 nM,–
B12,–,–,4.6 nM,–,–
B13,–,–,7 nM,1.4 nM,–
